The record followed here is publication PMC9433777.

Assay [1] has as its target HIV-1 envelope Q168.a2 (subtype A) (HIV-1).
Assay [2] deals with HIV-1 envelope ZM197.7 (subtype C) (HIV-1).
The target in assay [3] is HIV-1 envelope CAP45.G3 (subtype C) (HIV-1).
In assay [4] the target is HIV-1 envelope CAP210.E8 (subtype C) (HIV-1).
Assay [5] has as its target HIV-1 envelope Du422.01 (subtype C) (HIV-1).
The target in assay [6] is HIV-1 envelope QH0692.42 (subtype B) (HIV-1).
In assay [7] the target is HIV-1 envelope Q23.17 (subtype A) (HIV-1).
Assay [8] has as its target HIV-1 envelope Q461.e2 (subtype A) (HIV-1).
Assay [9] concerns the target HIV-1 envelope TRO.11 (subtype B) (HIV-1).
In assay [10] the target is HIV-1 envelope CAP214.15 (subtype C) (HIV-1).
Assay [11] addresses HIV-1 envelope Q842.d12 (subtype A) (HIV-1).
In assay [12] the target is HIV-1 envelope 6535 (subtype B) (HIV-1).
Assay [13] concerns the target HIV-1 envelope Du172.17 (subtype C) (HIV-1).
In assay [14] the target is HIV-1 envelope Du156.12 (subtype C) (HIV-1).
Assay [15] has as its target HIV-1 envelope ZM233.6 (subtype C) (HIV-1).

Turning to “CAP256-VRC26.25 produced in HEK293 (antibody)”, the IC50 of neutralisation of HIV-1 pseudovirus, TZM-bl assay in assay [1] was 1.73 µg/mL; in assay [2], 0.11 µg/mL; in assay [3] it was 0.0013 µg/mL; in assay [4], 0.0012 µg/mL; in assay [5], 0.11 µg/mL; in assay [6], greater than 50 µg/mL. The IC50 of neutralisation of HIV-1 pseudovirus, TZM-bl assay in assay [7] is 0.0014 µg/mL; in assay [8], 0.67 µg/mL; in assay [9], greater than 50 µg/mL; in assay [10], 3.12 µg/mL; in [11], greater than 50 µg/mL; in assay [12], greater than 50 µg/mL. Further, the IC50 of neutralisation of HIV-1 pseudovirus, TZM-bl assay in [13] is greater than 50 µg/mL; in [14], 0.15 µg/mL; in [15] it was 0.0044 µg/mL.

As to “CAP256-VRC26.25 produced in N. benthamiana (ΔXTFT) with Cas9/sgRNAs coexpression (antibody)”, the IC50 of neutralisation of HIV-1 pseudovirus, TZM-bl assay in assay [1] is 3.05 µg/mL; in assay [2] it was 0.098 µg/mL; in [3], 0.0013 µg/mL; in assay [4], 0.0014 µg/mL; in assay [5] it was 0.2 µg/mL; in assay [6] it was greater than 50 µg/mL. The IC50 of neutralisation of HIV-1 pseudovirus, TZM-bl assay in [7] was 0.0016 µg/mL; in assay [8], 1.61 µg/mL; in assay [9], greater than 50 µg/mL; in assay [10] it was 2.77 µg/mL; in assay [11], greater than 50 µg/mL; in [12], greater than 50 µg/mL. The IC50 of neutralisation of HIV-1 pseudovirus, TZM-bl assay was greater than 50 µg/mL in [13], 0.041 µg/mL in assay [14] and 0.005 µg/mL in assay [15].

Regarding “CAP256-VRC26.25 produced in N. benthamiana (ΔXTFT) without Cas9/sgRNAs coexpression (antibody)”, the IC50 of neutralisation of HIV-1 pseudovirus, TZM-bl assay was 2.94 µg/mL in assay [1]; 0.056 µg/mL in assay [2]; 0.0014 µg/mL in [3]; 0.0015 µg/mL in assay [4]; 0.1 µg/mL in [5]; greater than 50 µg/mL in assay [6]. For the same substance, the IC50 of neutralisation of HIV-1 pseudovirus, TZM-bl assay in assay [7] is 0.0016 µg/mL; in [8], 1.73 µg/mL; in [9], greater than 50 µg/mL; in assay [10], 4.31 µg/mL; in assay [11] it was greater than 50 µg/mL; in assay [12] it was greater than 50 µg/mL. Besides, the IC50 of neutralisation of HIV-1 pseudovirus, TZM-bl assay in [13] is greater than 50 µg/mL; in assay [14] it was 0.034 µg/mL; in assay [15] it was 0.0042 µg/mL.
